Measured values: patent publication US20070027086A1

Tests used:
[1] = biological target: human MC4-receptor (human) (UniProt P32245); test: competition with [^125I]NDP-MSH on COS cells expressing human MC4 receptor; Ki by Cheng-Prusoff
[2] = biological target: human MC5-receptor (human) (UniProt P33032); test: competition with [^125I]NDP-MSH on COS cells expressing human MC5 receptor; Ki by Cheng-Prusoff
[3] = biological target: human MC5-receptor (human) (UniProt P33032); test: ratio of Ki values, competition with [^125I]NDP-MSH on COS-1 cells expressing human MC receptors
[4] = biological target: human MC4-receptor (human) (UniProt P32245); test: as above

Chain of human MC5-receptor (human) (P33032 whole entry): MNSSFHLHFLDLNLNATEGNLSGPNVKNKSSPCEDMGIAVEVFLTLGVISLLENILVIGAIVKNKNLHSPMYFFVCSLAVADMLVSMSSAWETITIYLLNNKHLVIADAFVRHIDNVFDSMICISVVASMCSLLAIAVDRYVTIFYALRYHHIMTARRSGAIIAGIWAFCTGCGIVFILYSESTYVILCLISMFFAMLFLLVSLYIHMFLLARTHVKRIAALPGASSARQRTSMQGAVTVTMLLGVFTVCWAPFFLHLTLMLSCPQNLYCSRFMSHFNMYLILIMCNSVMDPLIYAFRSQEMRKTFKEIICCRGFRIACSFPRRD
Chain of human MC4-receptor (human) (P32245 whole entry): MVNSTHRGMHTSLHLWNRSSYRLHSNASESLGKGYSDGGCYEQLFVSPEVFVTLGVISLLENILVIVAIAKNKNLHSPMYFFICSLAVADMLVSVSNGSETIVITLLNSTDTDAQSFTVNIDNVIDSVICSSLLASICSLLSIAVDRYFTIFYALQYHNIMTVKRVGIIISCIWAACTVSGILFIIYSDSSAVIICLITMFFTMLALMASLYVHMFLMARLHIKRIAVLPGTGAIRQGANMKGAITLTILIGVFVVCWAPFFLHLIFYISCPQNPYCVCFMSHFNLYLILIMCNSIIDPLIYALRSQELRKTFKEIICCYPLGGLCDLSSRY

- Ki [1]: > 50 µM
- Ki [2]: > 50 µM
- fold lower affinity than for the MC1-receptor [3]: > 65000 fold
- fold lower affinity than for the MC1-receptor [4]: > 65000 fold
Substance: MS05 (Ser-Ser-Ile-Ile-Ser-His-Phe-Arg-Trp-Gly-Lys-Pro-Val-NH2) (peptide)
